Test results: patent US11851498B2, “Anti-CD276 antibodies (B7H3)” (THE UNITED STATES OF AMERICA, as represented by THE …, priority 2014, dated 2023)
Substitutions are numbered along the chain they refer to. “Also recorded” adds a separate entry of the source. Blank lines part the entries; values can stand above or below the molecule they belong to. Non-standard residues stand in square brackets, D forms with d. Residues, ends and D or L forms follow the SMILES beside them. *: point of attachment. Dolaproine = CO[C@@H]([C@@H]1CCCN1)[C@@H](C)C(=O)O; Dil = CC[C@H](C)[C@H](NC)[C@@H](CC(=O)O)OC; X1 = C[C@@H](N*)[C@@H](O)c1ccccc1; NMeV = CN[C@H](C(=O)O)C(C)C

Key:
293/CD276 cells = assay: Cell viability of HEK 293 cells transduced with CD276; details: FIG. 7
Procedure: (§1) HEK 293 cells (293) or HEK 293 cells transduced with CD276 (293/CD276) were treated with MMAE alone, m8524 (m276) (SEQ ID NOs: 26 and 27) antibody alone, m825 (irrelevant control antibody)-ADC, or m8524-ADC. The drug of the ADCs was MMAE.

HEK 293 cells (293) = assay: Cell viability of untransduced HEK 293 cells; details: 293 cells (low CD276); various concentrations (nM); FIG. 7
Procedure: as §1

[1] = system: mouse CD276-AP fusion protein; assay: ELISA binding assay, mouse CD276; details: scFv-Fc fusion protein in culture medium, serially diluted; CD276-AP coated at 2 μg/ml; FIG. 1B
mouse CD276-AP fusion protein, sequence (Q8VE98 29-248 limits assumed): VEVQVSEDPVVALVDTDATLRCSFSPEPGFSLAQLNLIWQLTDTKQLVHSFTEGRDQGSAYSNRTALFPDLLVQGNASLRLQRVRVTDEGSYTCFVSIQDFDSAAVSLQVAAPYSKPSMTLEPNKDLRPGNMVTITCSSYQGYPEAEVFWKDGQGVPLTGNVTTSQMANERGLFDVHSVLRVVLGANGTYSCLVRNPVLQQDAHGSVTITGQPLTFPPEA
Procedure: (§2) The scFv-encoding inserts of the unique clones were digested with SfiI and ligated into modified pSecTag bearing the same set of SfiI sites and Fc-Avi tag for soluble expression. These constructs were transfected into 293T cells for expression following the manufacturer's protocol. After 72 hr of growth, the scFv-Fc fusion proteins in the culture medium were used for the ELISA binding assay.
(§3) 50 μl of the diluted human (FIG. 1A) or mouse (FIG. 1B) CD276-AP fusion protein in PBS at 2 μg/ml was coated in a 96-well plate at 4° C. overnight. Transiently expressed scFv-Fc fusion protein in the culture medium was serially diluted and added into the target protein coated wells. After washing, a 1:3000 diluted horseradish peroxidase (HRP) conjugated goat anti-human IgG antibody was added for 1 hr at RT. After washing, 3, 3, 5, 5′-Tetramethylbenzidine (TMB) substrate was added, and the optical density (O.D.) was read at 450 nm.

[2] = system: human CD276-AP fusion protein; assay: ELISA binding assay, human CD276; details: scFv-Fc fusion protein in culture medium, serially diluted; CD276-AP coated at 2 μg/ml; FIG. 1A
Procedure: as §2, §3

[3] = system: Pan02 pancreatic adenocarcinoma tumors, tumor vasculature and normal tissues; assay: In vivo localization of FITC-labeled antibody after IP injection into Pan02 tumor-bearing mice (immunofluorescence); details: FITC-labeled IgG1 IP; for localization/staining in tumor (tumor cells and tumor vasculature): co-stain anti-CD31/anti-Meca32
Procedure: CD276 KO mice and CD276 WT mice each bearing Pan02 pancreatic adenocarcinoma tumors were injected (IP) with FITC-labeled 8524 IgG1 (SEQ ID NOs: 26 and 27) and anti-CD31/anti-Meca32. Anti-Meca32 is a monoclonal antibody with specificity for mouse endothelium.
(§4) CD276-positive, Pan02 pancreatic adenocarcinoma tumor-bearing, CD276 KO mice were injected (IP) with FITC-labeled 8524 IgG1 (SEQ ID NOs: 26 and 27) (green staining) and anti-CD31/anti-Meca32 (red staining). CD31/Meca32 positive vessels were stained red. Human tumor cells were stained green. Separate photographic images of the green and red staining were taken, and the images of the red and green staining were merged to provide a third image wherein co-localization of red and green staining provided a yellow signal.
as §4, with “WT” for “KO”
CD276 KO mice and CD276 WT mice each bearing Pan02 pancreatic adenocarcinoma tumors were injected (IP) with FITC-labeled 8524 IgG1 (SEQ ID NOs: 26 and 27) and anti-CD31/anti-Meca32. CD31/Meca32 positive vessels in the normal liver of both CD276 KO and CD276 WT mice and in the tumor vasculature of CD276 WT mice were stained red. Human tumor cells and tumor vasculature were stained green in the CD276 WT mice. Separate photographic images of the green and red staining in the tumor of CD276 WT mice were taken, and the images of the red and green staining were merged to provide a third image wherein co-localization of red and green staining provided a yellow signal. […] The yellow signal indicated the co-localization of the CD31/Meca32 staining (red) with the CD276 staining (green).
CD276 WT mice bearing Pan02 pancreatic adenocarcinoma tumors were injected (IP) with FITC-labeled 8524 IgG1 (SEQ ID NOs: 26 and 27) and anti-CD31/anti-Meca32. CD31/Meca32 positive vessels in normal tissues, including the brain, heart, intestines, liver, muscle, spleen, and stomach of the CD276 WT mice were stained red. Pan02 tumors served as a positive control for the staining of all normal tissues. CD31/Meca32 positive vessels in the tumor vasculature of CD276 WT mice were also stained red. Human tumor cells and tumor vasculature were stained green in the CD276 WT mice. […]

[4] = system: MC38 (colon cancer) tumor / normal liver margin; assay: Co-immunofluorescence post-staining of intrahepatic MC38 tumors at the normal liver/tumor margin; details: MC38 tumor-bearing WT mice; samples post-stained with FITC-labeled IgG1; FIG. 6B
From the text: Samples of the normal liver/tumor margin of MC38 (colon cancer)-tumor bearing, WT mice were post-stained with FITC-labeled human anti-CD276 antibody (m8524 IgG1) (SEQ ID NOs: 26 and 27) (FIG. 6B) or laminin (FIG. 6A). Photographic images were taken.

[5] = target: T1, human CD276 expressed on the surface of HEK 293 cells (293/CD276) (Homo sapiens, UniProt Q5ZPR3); assay: Flow cytometry binding to HEK293 cells transduced with human CD276; type: cell-based; details: FITC-labeled IgG1; FIG. 5
T1 construct: expressed in transfected cells; host or cells: HEK293 cells
T1 sequence (Q5ZPR3 29-534): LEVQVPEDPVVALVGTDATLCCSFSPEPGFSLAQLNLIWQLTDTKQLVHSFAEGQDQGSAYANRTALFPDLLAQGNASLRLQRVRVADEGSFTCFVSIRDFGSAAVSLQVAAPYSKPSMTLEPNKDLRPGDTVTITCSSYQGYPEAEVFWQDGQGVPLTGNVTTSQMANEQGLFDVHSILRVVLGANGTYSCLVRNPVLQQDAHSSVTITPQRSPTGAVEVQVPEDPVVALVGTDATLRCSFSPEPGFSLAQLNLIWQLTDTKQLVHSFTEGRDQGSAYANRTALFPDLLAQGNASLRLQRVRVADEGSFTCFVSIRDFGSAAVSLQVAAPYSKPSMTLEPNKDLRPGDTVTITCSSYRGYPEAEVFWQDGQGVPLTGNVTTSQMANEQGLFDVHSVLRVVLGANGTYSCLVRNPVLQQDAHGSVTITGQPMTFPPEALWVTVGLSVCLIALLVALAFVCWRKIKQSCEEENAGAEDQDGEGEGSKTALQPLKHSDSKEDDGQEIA
Procedure: HEK293 cells were untransduced or transduced to express human CD276. The cells were cultured with FITC-labeled human anti-CD276 antibody m8524 IgG1 (SEQ ID NOs: 26 and 27). The binding of the FITC-labeled human anti-CD276 antibody m8524 IgG1 to human CD276 expressed on the cell surface was measured by flow cytometry.

[6] = CD276 WT mice bearing Pan02 tumors

Molecule: CC[C@H](C)[C@@H]([C@@H](CC(=O)N1CCC[C@H]1[C@H](OC)[C@@H](C)C(=O)N[C@H](C)[C@@H](O)c1ccccc1)OC)N(C)C(=O)[C@@H](NC(=O)[C@@H](NC)C(C)C)C(C)C [MMAE, monomethyl auristatin E, reference compound] (H-[NMeV]V[Dil][Dolaproine]-X1)
cytotoxicity (cell viability, % of control) (293/CD276 cells; 293/CD276 cells (high CD276), various concentrations (nM)): cytotoxic to all cells
selectivity for CD276-expressing cells (293/CD276 cells; 293/CD276 versus 293 cells): no selectivity
cytotoxicity (cell viability, % of control) (HEK 293 cells (293)): cytotoxic to all cells

B1: m852: anti-CD276 antibody clone, heavy chain comprising SEQ ID NO: 7 and light chain comprising SEQ ID NO: 8 (antibody, V domains shown)
VH: QVQLQQSGAEVKKPGSSVKVSCKASGGTFSSYAISWVRQAPGQGLEWMGGIIPILGIANYAQKFQGRVTITADESTSTAYMELSSLRSEDTAVYYCARGRRSGSYYMGYWGQGTLVTVSS
VL: EIVLTQSPATLSLSPGERATLSCRASQSVSSNLAWYQQKPGQAPRLLIYDTSTRATGIPARFSGSGSGTEFTLTISSLQSEDFAVYYCQQYNNWPPAYTFGQGTKLEIK
binding to mouse CD276 (OD at 450 nm, ELISA) [1]: bound
binding to human CD276 (OD at 450 nm, ELISA) [2]: bound

Now from value to molecule, other results behind:

binding to mouse CD276 (OD at 450 nm, ELISA) [1]: bound
binding to human CD276 (OD at 450 nm, ELISA) [2]: bound
B2: m857: anti-CD276 antibody clone, heavy chain comprising SEQ ID NO: 17 and light chain comprising SEQ ID NO: 18 (antibody, V domains shown)
VH: QVQLQQSGAEVKKPGSSVKVSCKASGGTFSSYAISWVRQAPGQGLEWMGGIIPILGIANYAQKFQGRVTITADESTSTAYMELSSLRSEDTAVYYCATGGSGSYAFDIWGQGTMVTVSS
VL: B1 VL with N32Y, T51A, T53N, E70D, Q79E, S80P, Y91R, N92S, A97S

binding to CD276-transfected 293 cells as compared to non-transfected parent 293 cells (flow cytometry) [5]: increased binding
B3: m8524 IgG1: human anti-CD276 antibody m8524 in IgG1 format (SEQ ID NOs: 26 and 27), FITC-labeled (antibody, V domains shown)
VH: B2 VH with T98R, A105H, F106M, I108V, Q111K, M114T
VL: EIVLTQSPATLSLSPGERATLSCRASQSVSSYLAWYQQKPGQAPRLLIYDASNRATGIPARFSGSGSGTDFTLTISSLEPEDFAVYYCQQRSNWPPRITFGQGTRLEIK
modifications: FITC label
staining of normal liver ([3]; CD276 WT and CD276 KO mice bearing Pan02 tumors): not the normal liver
staining of normal tissues (brain, heart, intestines, liver, muscle, spleen, stomach) [3, 6]: did not stain any of the normal tissues
localization/staining in tumor (tumor cells and tumor vasculature) [3, 6]: co-localization; also recorded: localized to both human tumor cells and tumor vasculature; also recorded: stained tumor cells and tumor vasculature
localization/staining in tumor (tumor cells and tumor vasculature) ([3]; CD276 WT mice bearing Pan02 tumors, listed as 8524 IgG1): stained tumor cells (green) and tumor vasculature
staining at the normal liver/tumor margin [4]: stained tumor cells but not normal tissue
